Assay results taken from publication doi:10.1101/2025.02.22.639629 (bioRxiv, 2025).

B1: mature IL-37 (Lys53 N-terminus) (ligand, human, UniProt Q9NZH6 53-218, looked up)
chain: KNLNPKKFSIHDQDHKVLVLDSGNLIAVPDKNYIRPEIFFALASSLSSASAEKGSPILLGVSKGEFCLYCDKDKGQSHPSLQLKKEKLMKLAAQKESARRPFIFYRAQVGSWNMLESAAHPGWFICTSCNCNEPVGVTDKFENRKHIEFSFQPVCKAEMSPSEVSD
B2: IL-37 R158A (ligand, human, UniProt Q9NZH6 53-218, looked up)
chain: KNLNPKKFSIHDQDHKVLVLDSGNLIAVPDKNYIRPEIFFALASSLSSASAEKGSPILLGVSKGEFCLYCDKDKGQSHPSLQLKKEKLMKLAAQKESARRPFIFYAAQVGSWNMLESAAHPGWFICTSCNCNEPVGVTDKFENRKHIEFSFQPVCKAEMSPSEVSD

Target: the molecule itself
Assay: SEC-MALS

Row | Protein | stoichiometry N
1 | B1 | 2
2 | B2 | 2
